Where “and” joins values, the source holds several entries; their conditions need not be identical. Equal values may be shown once.
How the values were obtained:
[1] = target: the molecule itself; test: MST; 10 nM NT-647-labelled protein titrated with the same protein unlabelled (0–90.5 μM, 1:1 dilutions); Monolith NT.115; 25 °C; 10 mM HEPES pH 7.5, 500 mM NaCl, 0.5 mM TCEP, 0.05% Tween 20; constant is of monomer to dimer
[2] = target: the molecule itself; test: dynamic light scattering; purified SAM domain at rising concentrations; 25 °C; DynaPro; hydrodynamic radius compared with radii estimated by HYDROPRO and GRAMM-X for monomer, dimer and tetramer; dimer from 10–20 μM, tetramer >50 μM

B1: SLP-76 SAM domain (residues 1–78), recombinant, His-tagged (domain or fragment, human, UniProt Q13094 1-78, looked up)
chain: MALRNVPFRSEVLGWDPDSLADYFKKLNYKDCEKAVKKYHIDGARFLNLTENDIQKFPKLRVPILSKLSQEINKNEER
modifications: NT-647 dye coupled to primary amines on the labelled copy used in MST (one label per protein molecule); the titrated copy is unlabelled
notes: SLP-76 (LCP2), human, N-terminal sterile alpha motif (SAM) domain, residues 1-78 (helices H1-H5); Cloned into the NdeI/BamHI sites of pET-20b(+); also called SLP-76 N-terminal SAM domain; H1–5; source: E. coli BL21(DE3), pET-20b(+), soluble fraction purified by Ni2+ column
[1]
  Kd: 2500 ± 900 nM
[2]
  stoichiometry N: 2 and 4

Reference: article PMC3795252, “SLP-76 Sterile α Motif (SAM) and Individual H5 α Helix Mediate Oligomer Formation for Microclusters and T-cell Activation*” (The Journal of Biological Chemistry, 2013)
